Assay results from publication PMC11284679, “A designed ankyrin-repeat protein that targets Parkinson’s disease-associated LRRK2” (The Journal of Biological Chemistry, 2024).

Legend:
[1] = target: T1, biotinylated LRRK2^RCKW (LRRK2 residues 1327 to 2527) (UniProt Q5S007 1327-2527, biotin (biotinylated; site not stated)); assay: SPR; Biacore T200; 850 RU biotinylated LRRK2^RCKW on a streptavidin-coated Series S CM5 chip; DARPin E11 in the mobile phase, 30 μl/min; 20 mM Hepes pH 7.4, 150 mM NaCl, 0.5 mM TCEP, 20 μM GDP, 2.5 mM MgCl2; plateau values fitted to a Langmuir model; settings: both partners purified
T1 construct: Leucine rich repeat kinase 2 (LRRK2), C-terminal catalytic half with ROC GTPase, COR-A, COR-B, kinase and WD40 domains, residues 1327 to 2527; also called biotinylated LRRK2^RCKW protein; source: Sf9 (baculovirus, medium with 0.1 mM biotin), purified (Ni-NTA, TEV, Ni-NTA, S200 gel filtration); not shown: His6, N-terminal, cleaved
T1 sequence (looked up): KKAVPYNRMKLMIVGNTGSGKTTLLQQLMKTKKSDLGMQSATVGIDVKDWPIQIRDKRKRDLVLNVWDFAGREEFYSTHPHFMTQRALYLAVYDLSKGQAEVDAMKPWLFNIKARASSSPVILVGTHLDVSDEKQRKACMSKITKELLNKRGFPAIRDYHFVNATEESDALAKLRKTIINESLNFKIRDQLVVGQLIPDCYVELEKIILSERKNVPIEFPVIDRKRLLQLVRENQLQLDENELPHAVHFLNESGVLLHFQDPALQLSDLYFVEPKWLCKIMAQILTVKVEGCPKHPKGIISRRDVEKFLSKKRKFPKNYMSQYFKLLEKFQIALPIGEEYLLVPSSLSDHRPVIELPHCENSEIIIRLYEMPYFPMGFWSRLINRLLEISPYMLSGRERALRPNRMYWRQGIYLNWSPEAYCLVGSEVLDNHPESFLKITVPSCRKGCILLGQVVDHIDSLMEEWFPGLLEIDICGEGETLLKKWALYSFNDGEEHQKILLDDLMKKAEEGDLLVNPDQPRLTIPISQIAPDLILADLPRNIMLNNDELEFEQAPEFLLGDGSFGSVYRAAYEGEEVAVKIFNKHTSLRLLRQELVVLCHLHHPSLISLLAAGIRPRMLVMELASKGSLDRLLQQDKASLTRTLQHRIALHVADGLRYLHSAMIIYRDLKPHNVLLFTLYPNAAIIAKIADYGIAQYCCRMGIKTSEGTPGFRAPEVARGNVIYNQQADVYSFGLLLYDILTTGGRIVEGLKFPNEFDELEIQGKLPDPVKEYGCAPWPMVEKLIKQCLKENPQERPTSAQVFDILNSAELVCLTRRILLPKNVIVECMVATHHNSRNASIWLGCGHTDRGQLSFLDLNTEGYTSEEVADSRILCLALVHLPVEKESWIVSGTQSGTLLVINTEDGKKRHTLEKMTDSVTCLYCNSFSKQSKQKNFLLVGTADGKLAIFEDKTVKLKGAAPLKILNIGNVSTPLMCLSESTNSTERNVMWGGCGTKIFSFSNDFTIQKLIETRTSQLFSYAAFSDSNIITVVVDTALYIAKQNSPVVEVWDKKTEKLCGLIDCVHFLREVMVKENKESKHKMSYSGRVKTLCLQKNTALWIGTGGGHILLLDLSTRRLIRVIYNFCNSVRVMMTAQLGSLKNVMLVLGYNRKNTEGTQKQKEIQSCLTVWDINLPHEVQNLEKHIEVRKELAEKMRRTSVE

[2] = target: LRRK2^RCKW (purified for cryo-EM from His6-Z-TEV-LRRK2^RCKW); assay: mass photometry; Refeyn Two MP; LRRK2^RCKW alone or with a 2.5-fold excess of DARPin E11; 20 mM Hepes pH 7.4, 150 mM NaCl, 2.5 mM MgCl2, 5% glycerol, 20 μM GDP, 0.5 mM TCEP
[3] = target: T1, biotinylated LRRK2^RCKW (LRRK2 residues …); assay: BLI; Octet Red96, 25 °C; biotinylated LRRK2^RCKW on streptavidin biosensors; DARPin E11 15 to 1000 nM; 50 mM Hepes pH 8.0, 150 mM NaCl, 10 mM MgCl2, 5% glycerol, 0.1% BSA, 0.05% Tween 20, 500 μM GDP; Req fitted to a Langmuir model; settings: both partners purified

B1: DARPin E11 (designed binder)
chain: MRGSHHHHHHHHGSDLGKKLLEAARAGQDDEVRILMANGADVNATDEAGVTPLHLAADSGHLEIVEVLLKTGADVNAWDHYGFTPLHLAAHVGHLEIVEVLLKAGADVNAQDHAGWTPLHLAALYGHLEIVEVLLKHGADVNAQDMWGETPFDLAIDNGNEDIAEVLQKAAKLNDYKDDDDK
notes: Designed ankyrin-repeat protein selected by ribosome display against LRRK2^RCKW; also called 008-807-2362-H9; 8xHis-DARPin E11-3xFLAG; source: E. coli Rosetta, purified (Ni-NTA, SEC)
Kd [1]: 70 nM | koff [1]: ~0.005 s⁻¹ | stoichiometry N [2]: 1 | Kd [3]: 11 nM
